Measurements taken from patent US20050118170A1.
Each block holds one substance with its values, some of them ahead of it.

How the values were obtained:
[1] = target: human collagen type I (human) (UniProt P02452); assay: adherence of cells to collagen-coated plates, 30 minutes at 37° C.; not inhibited by anti-β1 integrin blocking antibody
[2] = target: DDR1b (discoidin domain receptor 1, isoform b), full-length human, overexpressed in THP-1 cells (human) (UniProt Q08345); assay: cell-based or functional assay
DDR1b (discoidin domain receptor 1, isoform b), full-length human, overexpressed in THP-1 cells (human), sequence (Q08345 19-913, form in doubt): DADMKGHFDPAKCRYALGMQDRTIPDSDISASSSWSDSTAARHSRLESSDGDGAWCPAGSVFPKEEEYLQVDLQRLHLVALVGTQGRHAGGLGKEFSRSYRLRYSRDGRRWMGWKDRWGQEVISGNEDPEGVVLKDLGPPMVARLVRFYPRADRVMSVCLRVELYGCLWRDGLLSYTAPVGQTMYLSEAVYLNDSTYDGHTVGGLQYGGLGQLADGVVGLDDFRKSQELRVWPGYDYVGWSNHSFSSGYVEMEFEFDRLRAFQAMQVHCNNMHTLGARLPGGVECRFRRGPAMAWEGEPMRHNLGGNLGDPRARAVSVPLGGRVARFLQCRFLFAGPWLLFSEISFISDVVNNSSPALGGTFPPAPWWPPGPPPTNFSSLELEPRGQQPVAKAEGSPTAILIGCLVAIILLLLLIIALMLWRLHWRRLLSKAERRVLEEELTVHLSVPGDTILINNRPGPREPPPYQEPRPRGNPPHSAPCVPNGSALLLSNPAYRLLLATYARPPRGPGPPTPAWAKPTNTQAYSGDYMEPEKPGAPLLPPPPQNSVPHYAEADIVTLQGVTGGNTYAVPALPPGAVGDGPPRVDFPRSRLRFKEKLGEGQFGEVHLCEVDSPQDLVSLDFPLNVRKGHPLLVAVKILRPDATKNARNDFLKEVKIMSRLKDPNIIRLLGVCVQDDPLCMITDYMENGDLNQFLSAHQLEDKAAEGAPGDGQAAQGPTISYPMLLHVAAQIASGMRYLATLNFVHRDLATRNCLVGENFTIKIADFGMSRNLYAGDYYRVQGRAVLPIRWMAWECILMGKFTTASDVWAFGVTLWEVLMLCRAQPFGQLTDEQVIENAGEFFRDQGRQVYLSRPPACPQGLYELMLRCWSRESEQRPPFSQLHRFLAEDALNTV

human collagen type I (human), sequence (P02452 162-1218 limits assumed, chain 1 of 2): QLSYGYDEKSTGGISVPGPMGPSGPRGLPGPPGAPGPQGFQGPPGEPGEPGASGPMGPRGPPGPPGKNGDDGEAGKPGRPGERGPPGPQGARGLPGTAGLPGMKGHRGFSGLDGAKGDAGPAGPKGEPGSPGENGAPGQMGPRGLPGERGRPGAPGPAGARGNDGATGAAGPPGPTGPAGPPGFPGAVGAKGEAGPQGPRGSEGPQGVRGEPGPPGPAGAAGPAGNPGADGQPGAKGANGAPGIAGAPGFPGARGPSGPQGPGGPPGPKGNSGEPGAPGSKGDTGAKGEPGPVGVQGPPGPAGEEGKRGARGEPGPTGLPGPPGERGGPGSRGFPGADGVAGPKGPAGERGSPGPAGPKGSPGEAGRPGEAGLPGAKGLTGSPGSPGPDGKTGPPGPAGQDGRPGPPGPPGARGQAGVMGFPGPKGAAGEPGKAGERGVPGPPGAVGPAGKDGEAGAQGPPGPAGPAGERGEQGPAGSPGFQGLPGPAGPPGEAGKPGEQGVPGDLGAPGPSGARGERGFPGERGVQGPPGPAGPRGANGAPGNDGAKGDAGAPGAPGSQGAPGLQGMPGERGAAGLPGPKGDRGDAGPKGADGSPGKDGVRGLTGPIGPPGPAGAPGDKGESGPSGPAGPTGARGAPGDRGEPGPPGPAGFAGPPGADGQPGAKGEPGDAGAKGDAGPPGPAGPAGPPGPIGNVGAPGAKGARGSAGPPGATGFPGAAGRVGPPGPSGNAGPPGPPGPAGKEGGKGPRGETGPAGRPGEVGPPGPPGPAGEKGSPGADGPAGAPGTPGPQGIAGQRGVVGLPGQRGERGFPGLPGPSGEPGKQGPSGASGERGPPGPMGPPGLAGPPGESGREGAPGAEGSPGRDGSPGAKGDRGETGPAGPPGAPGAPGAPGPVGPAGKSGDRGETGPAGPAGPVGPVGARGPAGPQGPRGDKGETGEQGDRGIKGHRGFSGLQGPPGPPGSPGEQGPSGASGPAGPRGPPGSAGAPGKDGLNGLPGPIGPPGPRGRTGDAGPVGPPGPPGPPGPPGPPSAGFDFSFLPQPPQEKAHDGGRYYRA
human collagen type I (human), sequence (P08123 80-1119 limits assumed, chain 2 of 2, further chain): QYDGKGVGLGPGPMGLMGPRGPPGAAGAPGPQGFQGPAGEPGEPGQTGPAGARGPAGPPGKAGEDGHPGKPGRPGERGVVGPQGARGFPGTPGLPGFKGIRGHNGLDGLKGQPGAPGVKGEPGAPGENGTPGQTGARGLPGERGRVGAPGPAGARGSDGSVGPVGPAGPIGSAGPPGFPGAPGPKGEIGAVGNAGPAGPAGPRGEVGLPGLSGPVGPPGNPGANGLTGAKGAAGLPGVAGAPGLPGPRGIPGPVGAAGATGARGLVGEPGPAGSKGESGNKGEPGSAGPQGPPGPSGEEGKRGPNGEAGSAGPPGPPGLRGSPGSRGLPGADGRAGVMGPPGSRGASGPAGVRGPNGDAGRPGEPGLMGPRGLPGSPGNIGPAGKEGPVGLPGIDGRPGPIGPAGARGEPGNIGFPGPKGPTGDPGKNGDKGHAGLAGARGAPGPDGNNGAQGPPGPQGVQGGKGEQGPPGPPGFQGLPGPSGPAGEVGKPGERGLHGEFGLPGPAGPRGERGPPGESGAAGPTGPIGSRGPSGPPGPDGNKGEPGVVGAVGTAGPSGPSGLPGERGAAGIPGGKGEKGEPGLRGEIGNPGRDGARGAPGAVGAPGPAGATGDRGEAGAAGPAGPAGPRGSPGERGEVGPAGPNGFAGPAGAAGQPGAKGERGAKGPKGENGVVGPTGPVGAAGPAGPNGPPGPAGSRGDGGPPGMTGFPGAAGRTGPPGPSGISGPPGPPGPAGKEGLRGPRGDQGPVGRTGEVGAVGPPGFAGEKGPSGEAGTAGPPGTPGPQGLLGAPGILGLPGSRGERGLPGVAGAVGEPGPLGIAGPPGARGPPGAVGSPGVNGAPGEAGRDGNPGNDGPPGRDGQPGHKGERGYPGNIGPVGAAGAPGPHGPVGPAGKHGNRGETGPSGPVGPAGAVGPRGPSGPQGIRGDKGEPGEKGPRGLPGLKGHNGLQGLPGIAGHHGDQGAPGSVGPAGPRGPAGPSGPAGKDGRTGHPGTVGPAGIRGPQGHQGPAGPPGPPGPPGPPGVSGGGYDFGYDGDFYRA
DDR1b (discoidin domain receptor 1, isoform b), full-length human, overexpressed in THP-1 cells, sequence (Q08345 19-913): as the sequence (Q08345 19-913, form in doubt) above

percent of total cells adherent (% of total cells) [1]: 62
Substance: DDR1a (discoidin domain receptor 1, isoform a), full-length human, overexpressed in THP-1 cells (from UniProt Q08345 19-913)

percent of total cells adherent (% of total cells) [1]: 62
Substance: DDR1b (discoidin domain receptor 1, isoform b), full-length human, overexpressed in THP-1 cells (from UniProt Q08345 19-913)

decrease in cell proliferation of PMA-treated THP-1 cells on collagen-coated plates [2]: 50%
Substance: bovine collagen type I (from UniProt P02453 162-1217; P02465 80-1117)

CD11c-positive cells at 24 hours on collagen-coated plates [2]: 53%
CD14-positive cells at 24 hours on collagen-coated plates [2]: 35%
CD40-positive cells at 24 hours on collagen-coated plates [2]: 19%
HLA-DR-positive cells, 12 hours on collagen-coated plates [2]: 10%
HLA-DR-positive cells, 24 hour incubation on collagen-coated plates [2]: 25%
HLA-DR-positive cells, 48 hour incubation on collagen-coated plates [2]: 70%
MCP-1 release into culture supernatant (ELISA) [2]: 7 fold
Substance: bovine collagen type I (from UniProt P02453 162-1217; P02465 80-1117) (ligand)
